From patent publication US20240000932A1 (BOOSTIMMUNE, published 2024)

Target: T1, recombinant human TCTP (translationally controlled tumor protein) (human, UniProt P13693 1-172)
T1 construct: The ELISA is only said to be 'on TCTP', and the screening beads were coated with human TCTP; also called HRF; Tpt1
T1 sequence: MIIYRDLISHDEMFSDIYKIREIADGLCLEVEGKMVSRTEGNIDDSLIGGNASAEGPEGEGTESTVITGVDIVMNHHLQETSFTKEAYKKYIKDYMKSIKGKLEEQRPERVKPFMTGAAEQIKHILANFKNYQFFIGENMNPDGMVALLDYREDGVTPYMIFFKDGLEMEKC
Assay: ELISA on TCTP, after single B cell screening with human TCTP coated beads
Method: Transgenic mice for preparing fully human antibodies (CAMOUSE®) were immunized by using a recombinant human TCTP (SEQ ID NO: 36), and standard single B cell screening method was used. Single viable B cell arrays were prepared by applying splenocyte of immunized mice to microarray chips. TCTP-specific antibody secreting single cells were screened on the microarray chip using human TCTP coated beads and then recovered by micromanipulation, mRNA were recovered from the single cells, and cDNA sequences encoding the variable regions of the IgG heavy (VH) and light (VL) chains were amplified by RT-PCR. The recombinant antibodies containing the VH and VL sequences are purified and tested by ELISA on TCTP. As a result, antibody 1-2-4 was obtained. The variable region sequences of antibody 1-2-4 are as follows. The antibody sequences for 1-2-4 were obtained from CAMOUSE® in cooperation with CAMAB (China) and GenScript (China).

B1: anti-TCTP human monoclonal antibody 1-2-4 (antibody, V domains shown)
VH: QVQLVQSGAEVKKPGASVKVSCKASGYTFFSYAMHWVRQAPGQRLEWMGWINAGNGNTKYSQKFQDRVTITRDTSATTAYMELSSLRSEDTAVYYCASWVFDYWGQGTPVTVSS
VL: DIVMTQTPLSSLVTLGQPASISCRSSQSLVHRDGNTYLSWLQQRPGQPPRLLIYKISNRFFGVPDRFSGSGAGTDFTLKISRVEAEDVGVYYCMQATQFPHTFGQGTKLEIK
B1: binds.
